The text below walks through data of PMC5991677, “3-methylcrotonyl Coenzyme A (CoA) carboxylase complex is involved in the Xanthomonas citri subsp. citri lifestyle during citrus infection” (PLoS ONE, 2018).

Data set [1] deals with His-AccD, β subunit of the 3-methylcrotonyl-CoA carboxylase (MCC) complex of Xanthomonas citri subsp. citri (XAC0264) (Xanthomonas citri subsp. citri) (UniProt Q8PJ30). Description: SEC; Superdex S200, 500 μg of AccC, AccD or the complex (preincubated mixture of both) loaded; 50 mM potassium phosphate pH 7.6, 50 mM NaCl, 0.5 mM DTT; calibrated with mass standards; fractions of the complex analysed by SDS-PAGE.

Data set [2] deals with CC(C)=CC(=O)SCCNC(=O)CCNC(=O)[C@H](O)C(C)(C)COP(=O)(O)OP(=O)(O)OC[C@H]1O[C@@H](n2cnc3c(N)ncnc32)[C@H](O)[C@@H]1OP(=O)(O)O. In words: purified protein. Conditions: co-substrates ATP and bicarbonate, Mg; 3-methylcrotonyl-CoA varied 1-1000 μM; enzyme complex 0.05 μM (Fig 4 legend says 0.5 μM).

As for “His-AccC, α subunit of the 3-methylcrotonyl-CoA carboxylase (MCC) complex of Xanthomonas citri subsp. citri (XAC0263) (from UniProt A0AAI8ER48 1-675) (natural protein)”, the stoichiometry N in data set [1] was 1.

Regarding “MCC complex (His-AccC / His-AccD, α6β6) (Xanthomonas citri subsp. citri 306)”, the Km in data set [2] was found to be 71.4 µM.

As for “His-AccD, β subunit of the 3-methylcrotonyl-CoA carboxylase (MCC) complex of Xanthomonas citri subsp. citri (XAC0264) (from UniProt Q8PJ30 1-295) (natural protein)”, the stoichiometry N in data set [1] came out at 6.
